Measured values: patent publication US12252534 (Scripps Research, dated 2025)

B1: UCHT-1-p-TriA (2×DUPA) (Fab, V domains shown)
VH: EVQLVESGGGLVQPGGSLRLSCAASGYSFTGYTMNWVRQAPGKGLEWVALINPYKGVSTYNQKFKDRFTISVDKSKNTAYLQMNSLRAEDTAVYYCARSGYYGDSDWYFDVWGQGTLVTVSS
VL: DIQMTQSPSSLSASVGDRVTITCRASQDIRNYLNWYQQKPGKAPKLLIYYTSRLESGVPSRFSGSGSGTDYTLTISSLQPEDFATYYCQQGNTLPWTFGQGTKVEIKR
modifications: one pAcF conjugated to p-TriA (DUPA-linker); position in UCHT-1 not stated
B2: HuL3H2 (Fab, V domains shown)
VH: EVQLVESGGGLVQPGGSLKLSCAASGFTFNTYAMNWVRQASGKGLEWVARIRSKYNNYATYYADSVKDRFTISRDDSKNTLYLQMNSLKTEDTAVYYCVRHGNFGNSYVSWFAYWGQGTLVTVSS
VL: QAVVTQEPSLTVSPGGTVTLTCGSSTGAVTTSNYANWVQQKPGQAFRGLIGGTNKRAPWTPARFSGSLLGGKAALTISGAQPEDEAEYYCALWYSNLWVFGGGTKLTVL
notes: Humanized Fab expressed in Expi293F; also called VL3 + VH2 humanized Fab
B3: Murine anti-CD3 (antibody, V domains shown)
VH: EVQLVESGGGLVQPKGSLKLSCAASGFTFNTYAMNWVRQAPGKGLEWVARIRSKYNNYATYYADSVKDRFTISRDDSQSILYLQMNNLKTEDTAMYYCVRHGNFGNSYVSWFAYWGQGTLVTVSS
VL: QAVVTQESALTTSPGETVTLTCRSSTGAVTTSNYANWVQEKPDHLFTGLIGGTNKRAPGVPARFSGSLIGDKAALTITGAQTEDEAIYFCALWYSNLWVFGGGTKLTVL
notes: also called murine anti-CD3 VL/VH
B4: HuL4H2 (Fab, V domains shown)
VH: EVQLVESGGGLVQPGGSLKLSCAASGFTFNTYAMNWVRQASGKGLEWVARIRSKYNNYATYYADSVKDRFTISRDDSKNTLYLQMNSLKTEDTAVYYCVRHGNFGNSYVSWFAYWGQGTLVTVSS
VL: QAVVTQEPSLTVSPGGTVTLTCGSSTGAVTTSNYANWVQQKPGQAFRGLIYGTNKRAPWTPARFSGSLLGDKAALTISGAQPEDEAEYYCALWYSNLWVFGGGTKLTVL
notes: Humanized Fab expressed in Expi293F; also called VL4 + VH2 humanized Fab
B5: HuL2H2 (Fab, V domains shown)
VH: EVQLVESGGGLVQPGGSLKLSCAASGFTFNTYAMNWVRQASGKGLEWVARIRSKYNNYATYYADSVKDRFTISRDDSKNTLYLQMNSLKTEDTAVYYCVRHGNFGNSYVSWFAYWGQGTLVTVSS
VL: QAVVTQEPSLTVSPGGTVTLTCGSSTGAVTTSNYANWVQQKPGQAFRGLIYGTNKRAPWTPARFSGSLLGGKAALTISGAQPEDEAEYYCALWYSNLWVFGGGTKLTVL
notes: Humanized Fab expressed in Expi293F; also called VL2 + VH2 humanized Fab
B6: HuL7H2 (Fab, V domains shown)
VH: EVQLVESGGGLVQPGGSLKLSCAASGFTFNTYAMNWVRQASGKGLEWVARIRSKYNNYATYYADSVKDRFTISRDDSKNTLYLQMNSLKTEDTAVYYCVRHGNFGNSYVSWFAYWGQGTLVTVSS
VL: QAVVTQEPSLTVSPGGTVTLTCRSSTGAVTTSNYANWVQQKPGQAFRGLIGGTNKRAPGTPARFSGSLLGDKAALTISGAQPEDEAEYYCALWYSNLWVFGGGTKLTVL
notes: Humanized Fab expressed in Expi293F; also called VL7 + VH2 humanized Fab
B7: HuL9H2 (Fab, V domains shown)
VH: EVQLVESGGGLVQPGGSLKLSCAASGFTFNTYAMNWVRQASGKGLEWVARIRSKYNNYATYYADSVKDRFTISRDDSKNTLYLQMNSLKTEDTAVYYCVRHGNFGNSYVSWFAYWGQGTLVTVSS
VL: QAVVTQEPSLTVSPGGTVTLTCGSSTGAVTTSNYANWVQQKPGQAFRGLIGGTNKRAPGVPDRFSGSLLGGKAALTISGAQPEDEAEYYCALWYSNLWVFGGGTKLTVL
notes: Humanized Fab expressed in Expi293F; also called VL9 + VH2 humanized Fab
B8: HuL8H2 (Fab, V domains shown)
VH: EVQLVESGGGLVQPGGSLKLSCAASGFTFNTYAMNWVRQASGKGLEWVARIRSKYNNYATYYADSVKDRFTISRDDSKNTLYLQMNSLKTEDTAVYYCVRHGNFGNSYVSWFAYWGQGTLVTVSS
VL: QAVVTQEPSLTVSPGGTVTLTCGSSTGAVTTSNYANWVQQKPDHLFRGLIGGTNKRAPGTPARFSGSLLGGKAALTISGAQPEDEAEYYCALWYSNLWVFGGGTKLTVL
notes: Humanized Fab expressed in Expi293F; also called VL8 + VH2 humanized Fab
B9: HuL1H1 (Fab, V domains shown)
VH: EVQLVESGGGLVQPGGSLKLSCAASGFTFNTYAMNWVRQASGKGLEWVGRIRSKYNNYATYYADSVKDRFTISRDDSKNTLYLQMNSLKTEDTAVYYCVRHGNFGNSYVSWFAYWGQGTLVTVSS
VL: QAVVTQEPSLTVSPGGTVTLTCGSSTGAVTTSNYANWFQQKPGQAPRTLIYGTNKRAPWTPARFSGSLLGGKAALTISGAQPEDEAEYYCALWYSNLWVFGGGTKLTVL
notes: Detected with anti-human kappa; also called VL1 + VH1 humanized Fab
B10: HuL6H2 (Fab, V domains shown)
VH: EVQLVESGGGLVQPGGSLKLSCAASGFTFNTYAMNWVRQASGKGLEWVARIRSKYNNYATYYADSVKDRFTISRDDSKNTLYLQMNSLKTEDTAVYYCVRHGNFGNSYVSWFAYWGQGTLVTVSS
VL: QAVVTQEPSLTVSPGGTVTLTCRSSTGAVTTSNYANWFQQKPDHLPRTLIYGTNKRAPGTPARFSGSLLGDKAALTISGAQPEDEAEYYCALWYSNLWVFGGGTKLTVL
notes: Humanized Fab expressed in Expi293F; also called VL6 + VH2 humanized Fab
B11: huL5H2 (heavy chain SEQ ID NO: 41 and light chain SEQ ID NO: 39) (Fab, V domains shown)
VH: EVQLVESGGGLVQPGGSLKLSCAASGFTFNTYAMNWVRQASGKGLEWVARIRSKYNNYATYYADSVKDRFTISRDDSKNTLYLQMNSLKTEDTAVYYCVRHGNFGNSYVSWFAYWGQGTLVTVSS
VL: QAVVTQEPSLTVSPGGTVTLTCRSSTGAVTTSNYANWVQQKPDHLFRGLIGGTNKRAPGTPARFSGSLLGDKAALTISGAQPEDEAEYYCALWYSNLWVFGGGTKLTVLK
notes: also called VL5 kappa + H2 Fab
B12: HuL10H2 (Fab, V domains shown)
VH: EVQLVESGGGLVQPGGSLKLSCAASGFTFNTYAMNWVRQASGKGLEWVARIRSKYNNYATYYADSVKDRFTISRDDSKNTLYLQMNSLKTEDTAVYYCVRHGNFGNSYVSWFAYWGQGTLVTVSS
VL: QAVVTQEPSLTTSPGGTVTLTCRSSTGAVTTSNYANWVQQKPDHLFTGLIGGTNKRAPGVPARFSGSLIGDKAALTISGAQPEDEAEYYCALWYSNLWVFGGGTKLTVL
notes: Humanized Fab expressed in Expi293F; also called VL10 + VH2 humanized Fab

What was measured:
[1] = molecular target: T1, cynomolgus CD3 on cynomolgus T cells (HSC-F) (cynomolgus monkey, UniProt Q95LI5 22-198; Q95LI8 22-171; Q95LI7 23-181); test: flow cytometry on HSC-F (cyCD3+) cells, detected with PE-conjugated anti-human kappa secondary antibody; control is the secondary antibody alone
T1 construct: whole, on cells; also called cyCD3+; cell surface CD3 on cynomolgus (HSC-F) T cells
T1 sequence (Q95LI5 22-198, chain 1 of 3): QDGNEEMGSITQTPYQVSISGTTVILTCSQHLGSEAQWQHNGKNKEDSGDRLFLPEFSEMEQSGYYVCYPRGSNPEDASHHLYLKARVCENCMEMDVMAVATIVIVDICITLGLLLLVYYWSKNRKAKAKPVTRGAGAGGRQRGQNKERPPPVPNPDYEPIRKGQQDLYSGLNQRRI
T1 sequence (Q95LI8 22-171, chain 2 of 3): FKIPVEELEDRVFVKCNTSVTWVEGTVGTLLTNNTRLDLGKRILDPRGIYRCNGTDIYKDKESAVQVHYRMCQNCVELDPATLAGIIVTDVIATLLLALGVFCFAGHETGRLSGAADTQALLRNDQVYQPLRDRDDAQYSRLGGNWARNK
T1 sequence (Q95LI7 23-181, chain 3 of 3): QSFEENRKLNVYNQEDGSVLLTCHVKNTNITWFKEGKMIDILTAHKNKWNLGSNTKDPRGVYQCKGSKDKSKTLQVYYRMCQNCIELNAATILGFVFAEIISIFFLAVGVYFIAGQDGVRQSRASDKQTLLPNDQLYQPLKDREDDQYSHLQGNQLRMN
Excerpt: Flow cytometry was used to test binding of conjugates to cell surface CD3 on human (Jurkat) and cynomolgus (HSC-F) T cells or PSMA on C4-2 cells.

[2] = molecular target: T2, human CD3 on human T cells (Jurkat) (human, UniProt P07766 23-207; P04234 22-171; P09693 23-182); test: flow cytometry, Jurkat cells, 0.32 nM antibody
T2 construct: whole, on cells; also called huCD3+; cell surface CD3 on human (Jurkat) T cells
T2 sequence (P07766 23-207, chain 1 of 3): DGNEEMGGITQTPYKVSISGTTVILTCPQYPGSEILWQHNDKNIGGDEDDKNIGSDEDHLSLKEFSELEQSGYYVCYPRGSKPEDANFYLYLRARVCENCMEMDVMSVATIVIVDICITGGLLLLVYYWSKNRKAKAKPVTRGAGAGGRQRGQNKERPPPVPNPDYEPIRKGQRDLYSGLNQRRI
T2 sequence (P04234 22-171, chain 2 of 3): as the sequence (Q95LI8 22-171, chain 2 of 3) above, with V5I, K15N, V20I, T32S, N33D, N34I, A64T, N74S, L83V, R141H counted along it
T2 sequence (P09693 23-182, chain 3 of 3): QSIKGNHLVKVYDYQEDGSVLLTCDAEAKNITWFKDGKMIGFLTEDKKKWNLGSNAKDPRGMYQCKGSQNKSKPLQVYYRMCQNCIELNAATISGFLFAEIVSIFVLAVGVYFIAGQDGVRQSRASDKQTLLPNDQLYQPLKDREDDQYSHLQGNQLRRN
Excerpt: (§1) To express humanized Fabs in mammalian cells, VH genes (VH1 and VH2) and VL genes (VL1~VL10) shown in FIG. 2 were individually cloned into the pFUSE vector under the IL2 signal peptide sequence. Light and heavy chains expression vectors were used to co-transfect Expi293F cells according to manufacturer's protocol. On day 3 or 4, cultured media was harvested and secreted Fabs were purified by Protein G chromatography. Binding affinity of humanized candidates for human and cynomolgus T cells were evaluated by flow cytometry. Briefly, cells were incubated with humanized Fabs at 4° C. for 30 min and washed twice with staining buffer (1% BSA in PBS). […] After several washes, samples were acquired on a BD LSR II or BD Accuri C6 and analyzed using FlowJo 7.6.2 software.

[3] = molecular target: T2, human CD3 on human T cells (Jurkat); test: flow cytometry, Jurkat cells, 0 nM antibody (background)
Excerpt: as §1

[4] = molecular target: T2, human CD3 on human T cells (Jurkat); test: flow cytometry, Jurkat cells, 1000 nM antibody
Excerpt: as §1

[5] = molecular target: T2, human CD3 on human T cells (Jurkat); test: flow cytometry, Jurkat cells, 40 nM antibody
Excerpt: as §1

[6] = molecular target: T2, human CD3 on human T cells (Jurkat); test: flow cytometry titration on Jurkat cells
Excerpt: as §1

[7] = molecular target: T2, human CD3 on human T cells (Jurkat); test: flow cytometry, Jurkat cells, 200 nM antibody
Excerpt: as §1

[8] = molecular target: T2, human CD3 on human T cells (Jurkat); test: flow cytometry, Jurkat cells, 8 nM antibody
Excerpt: as §1

[9] = molecular target: T2, human CD3 on human T cells (Jurkat); test: flow cytometry, Jurkat cells, 1.6 nM antibody
Excerpt: as §1

| Binder | binding result [1] | MFI [2] | MFI [3] | MFI [4] | MFI [5] | IC50 [6] [nM] | MFI [7] | MFI [8] | MFI [9] |
| --- | --- | --- | --- | --- | --- | --- | --- | --- | --- |
| B1 | no binding | – | – | – | – | – | – | – | – |
| B2 | – | 600 | 559 | 666 | 650 | 17.7 | 643 | 610 | 610 |
| B3 | – | 3560 | 1400 | 54400 | 41400 | 7.73 | 50600 | 28500 | 10500 |
| B4 | – | 599 | 559 | 650 | 620 | – | 620 | 620 | 615 |
| B5 | – | 1400 | 1400 | 1470 | 1450 | – | 1460 | 1450 | 1440 |
| B6 | – | 1570 | 1250 | 35400 | 13600 | 70.4 | 28900 | 4240 | 2040 |
| B7 | – | 637 | 559 | 39400 | 9950 | 119 | 27900 | 2760 | 986 |
| B8 | – | 837 | 559 | 54600 | 22000 | 78 | 42000 | 7670 | 2120 |
| B9 | – | 1400 | 1400 | 1470 | 1450 | – | 1460 | 1450 | 1440 |
| B10 | – | 572 | 559 | 2200 | 598 | 677 | 835 | 573 | 597 |
| B11 | – | 4430 | 1400 | 51800 | 41600 | 4.46 | 48000 | 31700 | 13400 |
| B12 | – | 688 | 559 | 46300 | 12700 | 139 | 31300 | 3270 | 1610 |
